From paper PMC6824469

Target: Prp43p (rPrp43p);Ntr1p (1-120) (Saccharomyces cerevisiae (budding …, UniProt P53131;Q06411 1-767;1-120, |))
Assay: EMSA

Sequence of Prp43p (rPrp43p);Ntr1p (1-120) (Saccharomyces cerevisiae (P53131 whole entry, chain 1 of 2): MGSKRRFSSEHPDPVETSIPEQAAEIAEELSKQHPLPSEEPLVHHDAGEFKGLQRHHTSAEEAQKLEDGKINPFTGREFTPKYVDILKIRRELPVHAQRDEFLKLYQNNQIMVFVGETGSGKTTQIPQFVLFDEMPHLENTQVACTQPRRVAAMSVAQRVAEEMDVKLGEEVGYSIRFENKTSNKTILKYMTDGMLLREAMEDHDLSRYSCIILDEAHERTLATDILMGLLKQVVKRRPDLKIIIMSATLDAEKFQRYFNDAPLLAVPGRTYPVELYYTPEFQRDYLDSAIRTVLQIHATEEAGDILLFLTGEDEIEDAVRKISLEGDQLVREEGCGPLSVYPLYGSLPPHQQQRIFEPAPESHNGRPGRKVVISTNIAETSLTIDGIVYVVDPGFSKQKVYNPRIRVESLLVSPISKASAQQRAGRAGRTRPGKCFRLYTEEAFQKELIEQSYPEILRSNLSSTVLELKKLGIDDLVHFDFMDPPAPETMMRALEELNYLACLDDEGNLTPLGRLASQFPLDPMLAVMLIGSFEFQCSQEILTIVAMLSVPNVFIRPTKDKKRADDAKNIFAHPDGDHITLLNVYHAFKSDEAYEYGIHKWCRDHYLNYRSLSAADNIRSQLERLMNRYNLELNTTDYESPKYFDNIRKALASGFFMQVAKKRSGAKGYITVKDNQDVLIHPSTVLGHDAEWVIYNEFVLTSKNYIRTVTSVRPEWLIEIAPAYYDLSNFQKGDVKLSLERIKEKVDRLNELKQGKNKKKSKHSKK
Sequence of Prp43p (rPrp43p);Ntr1p (1-120) (Saccharomyces cerevisiae (Q06411 1-120, chain 2 of 2): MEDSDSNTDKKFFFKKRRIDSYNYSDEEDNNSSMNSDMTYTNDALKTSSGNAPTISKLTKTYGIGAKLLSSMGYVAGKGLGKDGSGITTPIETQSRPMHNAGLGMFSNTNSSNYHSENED

B1: substrate-4 (RNA-4/Cy5 DNA) (DNA:RNA)
DNA 1: GGCACCAACACAAAACACATCTACACUCAACAAUCACUUU
DNA 2: GTAGATGTGTTTTGTGTTGGTGCC
modifications: DNA at nt 17-24 of strand 1 (proximal end of duplex)
binding result: binds

B2: substrate-5 (RNA-5/Cy5 DNA) (DNA:RNA)
RNA: GGCACCAACACAAAACACAUCUACACUCAACAAUCACUUU
DNA: GTAGATGTGTTTTGTGTTGGTGCC
modifications: DNA at nt 9-16 of strand 1 (middle of duplex)
binding result: binds

B3: substrate-1 (RNA-1/Cy5 DNA) (DNA:RNA)
RNA: GGCACCAACACAAAACACAUCUACACUCAACAAU
DNA: GTAGATGTGTTTTGTGTTGGTGCC
binding result: binds
